How the values were obtained:
[1] = molecular target: PC-1^deltaNT/PC-2_(F604P) heteromer (UniProt P98161)
[2] = molecular target: native heteromeric PC-1/PC-2 polycystin complex of mIMCD-3 primary cilia (mouse (endogenous in mIMCD-3)) (UniProt O08852)
[3] = molecular target: native heteromeric PC-1/PC-2 polycystin complex of mIMCD-3 primary cilia (mouse (endogenous in mIMCD-3)) (UniProt O08852); remark: listed apart in the source
[4] = molecular target: PC-2 F604P (human polycystin-2 with the gain of function mutation F604P) (human) (UniProt Q13563)
Chain of PC-2 F604P (human polycystin-2 with the gain of function mutation F604P) (human) (Q13563 whole entry F604P): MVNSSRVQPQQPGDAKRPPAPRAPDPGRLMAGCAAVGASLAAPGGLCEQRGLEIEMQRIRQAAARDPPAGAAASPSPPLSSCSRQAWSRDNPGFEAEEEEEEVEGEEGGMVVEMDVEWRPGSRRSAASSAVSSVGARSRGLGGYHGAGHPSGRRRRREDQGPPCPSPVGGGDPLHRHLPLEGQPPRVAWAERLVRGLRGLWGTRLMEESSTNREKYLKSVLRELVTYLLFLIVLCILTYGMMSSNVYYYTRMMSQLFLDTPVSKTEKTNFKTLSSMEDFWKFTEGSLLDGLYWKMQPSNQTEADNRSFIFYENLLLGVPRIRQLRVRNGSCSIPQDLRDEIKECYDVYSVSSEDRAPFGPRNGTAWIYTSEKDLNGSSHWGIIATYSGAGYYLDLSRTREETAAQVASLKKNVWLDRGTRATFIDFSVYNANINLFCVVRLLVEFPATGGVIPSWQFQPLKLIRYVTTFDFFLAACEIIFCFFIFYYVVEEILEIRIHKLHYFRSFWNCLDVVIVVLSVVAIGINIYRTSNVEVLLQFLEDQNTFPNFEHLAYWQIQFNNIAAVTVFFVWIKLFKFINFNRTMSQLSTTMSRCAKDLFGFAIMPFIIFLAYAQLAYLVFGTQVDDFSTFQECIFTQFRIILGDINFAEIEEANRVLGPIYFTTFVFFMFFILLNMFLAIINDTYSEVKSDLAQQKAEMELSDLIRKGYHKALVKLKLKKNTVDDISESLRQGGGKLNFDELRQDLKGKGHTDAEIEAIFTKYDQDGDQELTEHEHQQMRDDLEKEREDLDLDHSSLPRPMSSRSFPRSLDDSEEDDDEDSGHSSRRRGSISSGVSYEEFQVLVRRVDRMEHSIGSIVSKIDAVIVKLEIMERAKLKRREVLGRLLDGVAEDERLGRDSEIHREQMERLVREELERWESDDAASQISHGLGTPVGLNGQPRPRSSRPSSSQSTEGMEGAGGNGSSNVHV

Chain of PC-1 N-terminal fragment NTF^263-535 (P98161 263-535): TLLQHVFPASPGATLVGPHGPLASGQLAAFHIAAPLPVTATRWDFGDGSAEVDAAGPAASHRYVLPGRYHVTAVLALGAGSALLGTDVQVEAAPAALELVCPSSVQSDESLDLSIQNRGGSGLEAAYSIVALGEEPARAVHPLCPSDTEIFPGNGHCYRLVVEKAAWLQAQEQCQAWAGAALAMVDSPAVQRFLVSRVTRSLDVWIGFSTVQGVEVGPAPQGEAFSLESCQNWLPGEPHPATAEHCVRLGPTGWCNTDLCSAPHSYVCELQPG
Chain of PC-1^deltaNT/PC-2_(F604P) heteromer (P98161 other isoform, or with tags, fused parts or gaps F604P | F604P, chain 1 of 2): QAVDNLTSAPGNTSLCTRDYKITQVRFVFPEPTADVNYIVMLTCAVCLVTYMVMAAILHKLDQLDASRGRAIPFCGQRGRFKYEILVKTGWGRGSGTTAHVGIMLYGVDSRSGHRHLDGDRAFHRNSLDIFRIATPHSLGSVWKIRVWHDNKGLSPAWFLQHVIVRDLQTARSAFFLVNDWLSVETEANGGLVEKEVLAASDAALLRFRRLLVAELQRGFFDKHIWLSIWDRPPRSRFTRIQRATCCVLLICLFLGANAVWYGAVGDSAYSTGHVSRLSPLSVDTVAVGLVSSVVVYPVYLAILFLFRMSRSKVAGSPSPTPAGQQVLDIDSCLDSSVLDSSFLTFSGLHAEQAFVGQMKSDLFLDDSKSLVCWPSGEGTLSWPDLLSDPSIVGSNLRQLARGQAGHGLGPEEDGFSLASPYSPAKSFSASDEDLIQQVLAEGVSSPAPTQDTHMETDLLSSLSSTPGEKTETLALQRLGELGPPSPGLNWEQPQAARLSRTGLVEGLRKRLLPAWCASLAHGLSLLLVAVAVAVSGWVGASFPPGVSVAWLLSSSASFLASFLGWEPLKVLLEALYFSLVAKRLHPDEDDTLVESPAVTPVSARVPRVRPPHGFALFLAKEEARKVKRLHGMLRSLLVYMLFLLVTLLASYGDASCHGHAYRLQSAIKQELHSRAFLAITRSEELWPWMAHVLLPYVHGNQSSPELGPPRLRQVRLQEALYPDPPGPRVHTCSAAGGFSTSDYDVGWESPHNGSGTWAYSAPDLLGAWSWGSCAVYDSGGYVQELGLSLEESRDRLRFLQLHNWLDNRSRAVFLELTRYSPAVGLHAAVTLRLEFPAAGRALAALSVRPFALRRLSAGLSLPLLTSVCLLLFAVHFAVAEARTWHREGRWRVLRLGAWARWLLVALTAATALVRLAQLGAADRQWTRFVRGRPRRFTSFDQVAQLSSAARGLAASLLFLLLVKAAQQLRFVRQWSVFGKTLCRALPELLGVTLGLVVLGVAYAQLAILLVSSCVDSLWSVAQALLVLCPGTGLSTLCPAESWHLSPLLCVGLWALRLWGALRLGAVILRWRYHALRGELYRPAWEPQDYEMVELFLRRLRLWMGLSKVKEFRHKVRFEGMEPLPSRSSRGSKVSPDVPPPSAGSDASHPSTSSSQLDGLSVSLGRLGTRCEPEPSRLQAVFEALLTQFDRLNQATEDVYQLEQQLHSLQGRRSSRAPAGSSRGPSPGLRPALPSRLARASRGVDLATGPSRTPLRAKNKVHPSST
Chain of PC-1^deltaNT/PC-2_(F604P) heteromer (Q13563 whole entry F604P, chain 2 of 2, further chain): as the sequence (Q13563 whole entry F604P) above
Chain of PC-1 N-terminal fragment NTF^24-852 (P98161 24-852): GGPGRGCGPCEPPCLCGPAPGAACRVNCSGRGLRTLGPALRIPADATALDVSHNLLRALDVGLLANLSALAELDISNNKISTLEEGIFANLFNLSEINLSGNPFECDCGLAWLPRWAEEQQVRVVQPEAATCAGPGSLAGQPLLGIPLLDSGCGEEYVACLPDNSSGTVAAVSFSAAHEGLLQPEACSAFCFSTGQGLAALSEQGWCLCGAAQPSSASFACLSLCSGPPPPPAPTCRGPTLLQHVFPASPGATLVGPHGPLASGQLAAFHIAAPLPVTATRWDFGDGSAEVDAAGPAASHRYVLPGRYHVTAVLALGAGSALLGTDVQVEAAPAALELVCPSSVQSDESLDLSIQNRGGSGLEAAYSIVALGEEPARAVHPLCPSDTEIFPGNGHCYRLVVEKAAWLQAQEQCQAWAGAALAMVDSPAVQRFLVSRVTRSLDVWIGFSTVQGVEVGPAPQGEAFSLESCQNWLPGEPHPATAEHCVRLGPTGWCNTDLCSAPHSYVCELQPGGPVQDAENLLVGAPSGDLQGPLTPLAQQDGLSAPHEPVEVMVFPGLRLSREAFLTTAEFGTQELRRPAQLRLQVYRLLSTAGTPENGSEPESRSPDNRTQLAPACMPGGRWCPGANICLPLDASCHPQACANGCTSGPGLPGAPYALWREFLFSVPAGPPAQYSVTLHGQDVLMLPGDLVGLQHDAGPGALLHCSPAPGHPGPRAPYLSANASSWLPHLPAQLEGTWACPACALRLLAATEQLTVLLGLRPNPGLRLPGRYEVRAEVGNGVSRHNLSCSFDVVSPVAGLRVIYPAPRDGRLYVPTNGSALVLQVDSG

## PC-1 N-terminal fragment NTF^24-852 (from UniProt P98161 24-852) (domain or fragment)
[1]
  outward whole-cell currents of HEK293 cells expressing PC-1deltaNT/PC-2 F604P with the fragment in the bath solution: 65.5 pA/pF

## PC-1 N-terminal fragment NTF^263-535 (from UniProt P98161 263-535) (domain or fragment)
[2]
  probability of single channel openings at negative membrane potentials, excised inside-out patches of mIMCD-3 primary cilia, 0.7 ug/mL (~50 nM) fragment in the pipette: 5 fold
[1]
  outward whole-cell currents of HEK293 cells expressing PC-1deltaNT/PC-2 F604P with the fragment in the bath solution (boiled fragment inactive): 61.4 pA/pF
[3]
  spike-like elevations of ciliary Ca2+ (Arl13b-mScarlet-GCaMP6s, TIRF microscopy) in mIMCD-3 cells after the fragment; none in untreated cells, with boiled fragment or in PC-2 knockout cells: > 0.35 ΔF/F

## sPC-1 (human polycystin-1 with Ig kappa-chain secretion sequence and HA tag in place of its own signal peptide) (from UniProt P98161 24-4303) (receptor)
[4]
  relative open probability at -100 mV, whole-cell patch clamp, HEK293 cells: 0.1
  whole-cell patch clamp current density at +100 mV, HEK293 cells co-expressing sPC-1 and PC-2 F604P (PC-2 F604P alone gave negligible currents): 123 pA/pF

## sPC-1_(pore) (sPC-1 with R4100G, R4107G and H4111G) (from UniProt P98161 24-4303) (receptor)
[4]
  relative open probability at -100 mV, whole-cell patch clamp, HEK293 cells: 0.3
  whole-cell patch clamp current density at +180 mV, HEK293 cells co-expressing sPC-1pore and PC-2 F604P: 71.1 pA/pF
